What was measured:
[1] = target: tumor-associated glycoprotein-72 (TAG-72), used as TAG-72-positive BSM (bovine submaxillary mucin, type-1-S, Sigma) (bovine); assay: competitive ELISA, whole IgG, reference 3E8
[2] = target: tumor-associated glycoprotein-72 (TAG-72), used as TAG-72-positive BSM (bovine submaxillary mucin, type-1-S, Sigma) (bovine); assay: competitive ELISA, whole IgG expressed in animal cells, reference 3E8 whole IgG (FIG. 9)
[3] = target: tumor-associated glycoprotein-72 (TAG-72), used as TAG-72-positive BSM (bovine submaxillary mucin, type-1-S, Sigma) (bovine); assay: competitive ELISA, whole IgG in COS7 culture supernatant

- fold higher antigen binding affinity than the 3E8 antibody [1]: 1.5 fold
- fold higher antigen binding affinity than the 3E8 antibody [2]: 1.5 fold
- Kd [3]: 450 pM
B1: humanized antibody 3E8/BSM22 (whole IgG form) (antibody, V domains shown)
VH: QVQLVQSGAEVKKPGASVKVSCKASGYTFTDHAIHWVRQAPGQRLEWMGYFSPGNDDFKYSQKFQGRVTITADKSASTAYMELSSLRSEDTAVYYCARSWIMQYWGQGTLVTVSS
VL: DIVMTQSPDSLAVSLGERATIHCKSSQSILYSSNNKNYLAWYQQKPGQPPKLLLYWASTREAGVPDRFSGGGSGTDFTLTISSLQPEDSATYYCQQYNTYPLTFGGGTKVEIK
